B1: Drp1 (dynamin-related protein Drp1), wild type [not stated] / GST-MiD51^133-463, wild type [human] (parent)
chain 1: MEALIPVINKLQDVFNTVGADIIQLPQIVVVGTQSSGKSSVLESLVGRDLLPRGTGIVTRRPLILQLVHVSQEDKRKTTGEENGVEAEEWGKFLHTKNKLYTDFDEIRQEIENETERISGNNKGVSPEPIHLKIFSPNVVNLTLVDLPGMTKVPVGDQPKDIELQIRELILRFISNPNSIILAVTAANTDMATSEALKISREVDPDGRRTLAVITKLDLMDAGTDAMDVLMGRVIPVKLGIIGVVNRSQLDINNKKSVTDSIRDEYAFLQKKYPSLANRNGTKYLARTLNRLLMHHIRDCLPELKTRINVLAAQYQSLLNSYGEPVDDKSATLLQLITKFATEYCNTIEGTAKYIETSELCGGARICYIFHETFGRTLESVDPLGGLNTIDILTAIRNATGPRPALFVPEVSFELLVKRQIKRLEEPSLRCVELVHEEMQRIIQHCSNYSTQELLRFPKLHDAIVEVVTCLLRKRLPVTNEMVHNLVAIELAYINTKHPDFADACGLMNNNIEEQRRNRLARELPSAVSRDKVASGGGGVGDGVQEPTTGNWRGMLKTSKAEELLAEEKSKPIPIMPASPQKGHAVNLLDVPVPVARKLSAREQRDCEVIERLIKSYFLIVRKNIQDSVPKAVMHFLVNHVKDTLQSELVGQLYKSSLLDDLLTESEDMAQRRKEAADMLKALQGASQIIAEIRETHLW
chain 2: MSLQEKLLTYYRNRAAIPAGEQARAKQAAVDICAELRSFLRAKLPDMPLRDMYLSGSLYDDLQVVTADHIQLIVPLVLEQNLWSCIPGEDTIMNVPGFFLVRRENPEYFPRGSSYWDRCVVGGYLSPKTVADTFEKVVAGSINWPAIGSLLDYVIRPAPPPEALTLEVQYERDKHLFIDFLPSVTLGDTVLVAKPHRLAQYDNLWRLSLRPAETARLRALDQADSGCRSLCLKILKAICKSTPALGHLTASQLTNVILHLAQEEADWSPDMLADRFLQALRGLISYLEAGVLPSALNPKVNLFAELTPEEIDELGYTLYCSLSEPEVLLQT

The assay covers variants of B1. In words: GST pull-down, SDS-PAGE band quantification. The following applies: with GST-MiD51^133-463, wild type [human], read off a plot.
The mark [1] stands for this setting: Apo (no nucleotide), parent: 0.15.

Experimental findings from paper PMC6355003 are described below.

Turning to chain 1 G401A P402A R403A P404A, the response (1 mM GDP-AlFx, parent: 0.085) stood at 0.05 molar ratio; the response (1 mM GDP, parent: 0.14) was 0.05 molar ratio; the response (1 mM GMP-PNP, parent: 0.69) is 0.065 molar ratio; the response (1 mM GTP, parent: 0.37) worked out at 0.06 molar ratio; the response under setting [1] turned out to be 0.07 molar ratio.
Turning to chain 1 K38A, the response by setting is: (1 mM GDP-AlFx, parent: 0.085) 0.34 molar ratio; (1 mM GDP, parent: 0.14) 0.36 molar ratio; (1 mM GMP-PNP, parent: 0.69) 0.43 molar ratio; (1 mM GTP, parent: 0.37) 0.4 molar ratio; under setting [1], 0.36 molar ratio; (parent: 0.15) 0.36 molar ratio.
